Data taken from article PMC8967715 (2022).

B1: R. affinis 787 ACE2 residues 19–615 with C-terminal human IgG1 Fc (Genscript) (Fc fusion)
chain: STTEDRAKIFLDNFNREAEELSYQSSLASWEYNTNISDENVQKMDEAGAKWSAFYEEQSKLAKNYPLEEIQTVPVKLQLQILQQSGSPVLSEDKSKRLNSILNAMSTIYSTGKVCKPNNPQECFLLEPGLDNIMGTSKDYNERLWAWEGWRAEVGKQLRPLYEEYVVLKNEMARGYHYEDYGDYWRRDYETEESSGSGYSRDQLMKDVDRIFTEIKPLYEHLHAYVRTKLMDTYPFHISPTGCLPAHLLGDMWGRFWTNLYPLTVPFGQKPNIDVTDAMVNQGWDANRIFKEAEKFFVSVGLPNMTEGFWNNSMLTEPGDGRKVVCHPTAWDLGKGDFRIKMCTKVTMEDFLTAHHEMGHIQYDMAYATQPYLLRNGANEGFHEAVGEVMSLSVATPKHLKTMGLLSPDFLEDNETEINFLLKQALNIVGTLPFTYMLEKWRWMVFRGEIPKEEWMKKWWEMKRDLVGVVEPVPHDETYCDPASLFHVANDYSFIRYYTRTIFEFQFHEALCRIAQHDGPLHKCDISNSTDAGKKLHQMLSVGKSQPWTVTLKDIVDSRNMDVGPLLRYFEPLYTWLQEQNRKSYVGWNTDWSPYSD
B2: Mouse (Mus musculus) ACE2 (residues 18–740) with His tag and human IgG1 Fc (Fc fusion)
chain: QSLTEENAKTFLNNFNQEAEDLSYQSSLASWNYNTNITEENAQKMSEAAAKWSAFYEEQSKTAQSFSLQEIQTPIIKRQLQALQQSGSSALSADKNKQLNTILNTMSTIYSTGKVCNPKNPQECLLLEPGLDEIMATSTDYNSRLWAWEGWRAEVGKQLRPLYEEYVVLKNEMARANNYNDYGDYWRGDYEAEGADGYNYNRNQLIEDVERTFAEIKPLYEHLHAYVRRKLMDTYPSYISPTGCLPAHLLGDMWGRFWTNLYPLTVPFAQKPNIDVTDAMMNQGWDAERIFQEAEKFFVSVGLPHMTQGFWANSMLTEPADGRKVVCHPTAWDLGHGDFRIKMCTKVTMDNFLTAHHEMGHIQYDMAYARQPFLLRNGANEGFHEAVGEIMSLSAATPKHLKSIGLLPSDFQEDSETEINFLLKQALTIVGTLPFTYMLEKWRWMVFRGEIPKEQWMKKWWEMKREIVGVVEPLPHDETYCDPASLFHVSNDYSFIRYYTRTIYQFQFQEALCQAAKYNGSLHKCDISNSTEAGQKLLKMLSLGNSEPWTKALENVVGARNMDVKPLLNYFQPLFDWLKEQNRNSFVGWNTEWSPYADQSIKVRISLKSALGANAYEWTNNEMFLFRSSVAYAMRKYFSIIKNQTVPFLEEDVRVSDLKPRVSFYFFVTSPQNVSDVIPRSEVEDAIRMSRGRINDVFGLNDNSLEFLGIHPTLEPPYQPPVT

Assays:
Assay in all cases: FACS
[1] = biological target: BtKY72 RBD, yeast-displayed (bat sarbecovirus BtKY72)
WIV1 = biological target: WIV1
[2] = biological target: SARS-CoV-2 RBD (Wuhan-Hu-1, Asn331–Thr531), yeast-displayed (SARS-CoV-2 (Wuhan-Hu-1), UniProt P0DTC2 331-531)

| Binder | Kd [1] [µM] | Kd (WIV1) [µM] | Kd [2] [µM] |
| --- | --- | --- | --- |
| B1 | 0.1 |  |  |
| B2 |  | ~3.98 | > 10 |
